# Measured values taken from patent US20140087995A1 (published 2014).
# Numbered stars: 1 amine (or outer) side, 2 acyl side, 3 side chain; on linkers, the order of the positions; unused ones are H or OH. Bridge positions count the residues as written; N and C are the ends. Side chains are listed from the residue outwards. Ends that are not written are not given here. * marks the point of attachment. C20 diacid = O=C(O)CCCCCCCCCCCCCCCCCCC(=O)*; γGlu = O=C(O)[C@H](CCC(=O)[*:2])N[*:1]
# T1: human amylin 3(a) receptor (human calcitonin receptor co-expressed with RAMP-3) (human, UniProt P30988 25-474; O60896 24-148, limits assumed)
# T1 sequence (looked up) 1: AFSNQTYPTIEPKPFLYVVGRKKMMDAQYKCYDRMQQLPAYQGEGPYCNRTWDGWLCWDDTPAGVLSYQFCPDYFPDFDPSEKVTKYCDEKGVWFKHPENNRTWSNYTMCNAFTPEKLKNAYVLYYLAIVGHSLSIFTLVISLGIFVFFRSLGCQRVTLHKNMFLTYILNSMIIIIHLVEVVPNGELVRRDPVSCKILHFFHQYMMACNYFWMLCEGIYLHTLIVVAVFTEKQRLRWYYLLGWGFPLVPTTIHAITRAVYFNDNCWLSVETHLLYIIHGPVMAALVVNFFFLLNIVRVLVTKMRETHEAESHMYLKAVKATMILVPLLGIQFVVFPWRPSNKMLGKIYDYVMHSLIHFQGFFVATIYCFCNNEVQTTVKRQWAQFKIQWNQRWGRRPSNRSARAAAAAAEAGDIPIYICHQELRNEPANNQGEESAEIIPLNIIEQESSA
# T1 sequence (looked up) 2: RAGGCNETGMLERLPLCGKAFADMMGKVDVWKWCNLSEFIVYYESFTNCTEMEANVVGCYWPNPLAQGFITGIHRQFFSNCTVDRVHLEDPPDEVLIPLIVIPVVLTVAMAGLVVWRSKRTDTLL
# T2: human calcitonin receptor (human, UniProt P30988 25-474)
# T2 sequence (looked up): T1 sequence (looked up) 1
# B1: N^ε1-[(4S)-4-carboxy-4-(19-carboxynonadecanoylamino)butanoyl]-[Ala14,Arg17,Pro21,Pro27,His34]-h-amylin (peptide)
# peptide: K([γGlu-C20 diacid])CNTATCATQRLAAFLRHSSPNFGAIPSSTNVGHNTY-NH2
# modifications: disulfide 2-7; N-terminus assumed
# SMILES: CC[C@H](C)[C@H](NC(=O)[C@H](C)NC(=O)CNC(=O)[C@H](Cc1ccccc1)NC(=O)[C@H](CC(N)=O)NC(=O)[C@@H]1CCCN1C(=O)[C@H](CO)NC(=O)[C@H](CO)NC(=O)[C@H](Cc1c[nH]cn1)NC(=O)[C@H](CCCNC(=N)N)NC(=O)[C@H](CC(C)C)NC(=O)[C@H](Cc1ccccc1)NC(=O)[C@H](C)NC(=O)[C@H](C)NC(=O)[C@H](CC(C)C)NC(=O)[C@H](CCCNC(=N)N)NC(=O)[C@H](CCC(N)=O)NC(=O)[C@@H](NC(=O)[C@H](C)NC(=O)[C@@H]1CSSC[C@H](NC(=O)[C@@H](N)CCCCNC(=O)CC[C@H](NC(=O)CCCCCCCCCCCCCCCCCCC(=O)O)C(=O)O)C(=O)N[C@@H](CC(N)=O)C(=O)N[C@@H]([C@@H](C)O)C(=O)N[C@@H](C)C(=O)N[C@@H]([C@@H](C)O)C(=O)N1)[C@@H](C)O)C(=O)N1CCC[C@H]1C(=O)N[C@@H](CO)C(=O)N[C@@H](CO)C(=O)N[C@H](C(=O)N[C@@H](CC(N)=O)C(=O)N[C@H](C(=O)NCC(=O)N[C@@H](Cc1c[nH]cn1)C(=O)N[C@@H](CC(N)=O)C(=O)N[C@H](C(=O)N[C@@H](Cc1ccc(O)cc1)C(N)=O)[C@@H](C)O)C(C)C)[C@@H](C)O
# notes: also called compound 93
# B2: N^ε1-[(4S)-4-carboxy-4-(19-carboxynonadecanoylamino)butanoyl]-[Arg14,Arg17,Pro21,Pro27]-h-amylin (peptide)
# peptide: K([γGlu-C20 diacid])CNTATCATQRLARFLRHSSPNFGAIPSSTNVGSNTY-NH2
# modifications: disulfide 2-7; N-terminus assumed
# SMILES: CC[C@H](C)[C@H](NC(=O)[C@H](C)NC(=O)CNC(=O)[C@H](Cc1ccccc1)NC(=O)[C@H](CC(N)=O)NC(=O)[C@@H]1CCCN1C(=O)[C@H](CO)NC(=O)[C@H](CO)NC(=O)[C@H](Cc1c[nH]cn1)NC(=O)[C@H](CCCNC(=N)N)NC(=O)[C@H](CC(C)C)NC(=O)[C@H](Cc1ccccc1)NC(=O)[C@H](CCCNC(=N)N)NC(=O)[C@H](C)NC(=O)[C@H](CC(C)C)NC(=O)[C@H](CCCNC(=N)N)NC(=O)[C@H](CCC(N)=O)NC(=O)[C@@H](NC(=O)[C@H](C)NC(=O)[C@@H]1CSSC[C@H](NC(=O)[C@@H](N)CCCCNC(=O)CC[C@H](NC(=O)CCCCCCCCCCCCCCCCCCC(=O)O)C(=O)O)C(=O)N[C@@H](CC(N)=O)C(=O)N[C@@H]([C@@H](C)O)C(=O)N[C@@H](C)C(=O)N[C@@H]([C@@H](C)O)C(=O)N1)[C@@H](C)O)C(=O)N1CCC[C@H]1C(=O)N[C@@H](CO)C(=O)N[C@@H](CO)C(=O)N[C@H](C(=O)N[C@@H](CC(N)=O)C(=O)N[C@H](C(=O)NCC(=O)N[C@@H](CO)C(=O)N[C@@H](CC(N)=O)C(=O)N[C@H](C(=O)N[C@@H](Cc1ccc(O)cc1)C(N)=O)[C@@H](C)O)C(C)C)[C@@H](C)O
# notes: also called compound 83
# B3: N^ε1-[(4S)-4-carboxy-4-(19-carboxynonadecanoylamino)butanoyl]-[Glu14,Arg17,Pro21,Pro27,Pro34,Arg35]-h-amylin (peptide)
# peptide: K([γGlu-C20 diacid])CNTATCATQRLAEFLRHSSPNFGAIPSSTNVGPRTY-NH2
# modifications: disulfide 2-7; N-terminus assumed
# SMILES: CC[C@H](C)[C@H](NC(=O)[C@H](C)NC(=O)CNC(=O)[C@H](Cc1ccccc1)NC(=O)[C@H](CC(N)=O)NC(=O)[C@@H]1CCCN1C(=O)[C@H](CO)NC(=O)[C@H](CO)NC(=O)[C@H](Cc1c[nH]cn1)NC(=O)[C@H](CCCNC(=N)N)NC(=O)[C@H](CC(C)C)NC(=O)[C@H](Cc1ccccc1)NC(=O)[C@H](CCC(=O)O)NC(=O)[C@H](C)NC(=O)[C@H](CC(C)C)NC(=O)[C@H](CCCNC(=N)N)NC(=O)[C@H](CCC(N)=O)NC(=O)[C@@H](NC(=O)[C@H](C)NC(=O)[C@@H]1CSSC[C@H](NC(=O)[C@@H](N)CCCCNC(=O)CC[C@H](NC(=O)CCCCCCCCCCCCCCCCCCC(=O)O)C(=O)O)C(=O)N[C@@H](CC(N)=O)C(=O)N[C@@H]([C@@H](C)O)C(=O)N[C@@H](C)C(=O)N[C@@H]([C@@H](C)O)C(=O)N1)[C@@H](C)O)C(=O)N1CCC[C@H]1C(=O)N[C@@H](CO)C(=O)N[C@@H](CO)C(=O)N[C@H](C(=O)N[C@@H](CC(N)=O)C(=O)N[C@H](C(=O)NCC(=O)N1CCC[C@H]1C(=O)N[C@@H](CCCNC(=N)N)C(=O)N[C@H](C(=O)N[C@@H](Cc1ccc(O)cc1)C(N)=O)[C@@H](C)O)C(C)C)[C@@H](C)O
# B4: N^ε1-[(4S)-4-carboxy-4-(19-carboxynonadecanoylamino)butanoyl]-[Ala14,Arg17,Pro21,Pro27,Pro34]-h-amylin (peptide)
# peptide: K([γGlu-C20 diacid])CNTATCATQRLAAFLRHSSPNFGAIPSSTNVGPNTY-NH2
# modifications: disulfide 2-7; N-terminus assumed
# SMILES: CC[C@H](C)[C@H](NC(=O)[C@H](C)NC(=O)CNC(=O)[C@H](Cc1ccccc1)NC(=O)[C@H](CC(N)=O)NC(=O)[C@@H]1CCCN1C(=O)[C@H](CO)NC(=O)[C@H](CO)NC(=O)[C@H](Cc1c[nH]cn1)NC(=O)[C@H](CCCNC(=N)N)NC(=O)[C@H](CC(C)C)NC(=O)[C@H](Cc1ccccc1)NC(=O)[C@H](C)NC(=O)[C@H](C)NC(=O)[C@H](CC(C)C)NC(=O)[C@H](CCCNC(=N)N)NC(=O)[C@H](CCC(N)=O)NC(=O)[C@@H](NC(=O)[C@H](C)NC(=O)[C@@H]1CSSC[C@H](NC(=O)[C@@H](N)CCCCNC(=O)CC[C@H](NC(=O)CCCCCCCCCCCCCCCCCCC(=O)O)C(=O)O)C(=O)N[C@@H](CC(N)=O)C(=O)N[C@@H]([C@@H](C)O)C(=O)N[C@@H](C)C(=O)N[C@@H]([C@@H](C)O)C(=O)N1)[C@@H](C)O)C(=O)N1CCC[C@H]1C(=O)N[C@@H](CO)C(=O)N[C@@H](CO)C(=O)N[C@H](C(=O)N[C@@H](CC(N)=O)C(=O)N[C@H](C(=O)NCC(=O)N1CCC[C@H]1C(=O)N[C@@H](CC(N)=O)C(=O)N[C@H](C(=O)N[C@@H](Cc1ccc(O)cc1)C(N)=O)[C@@H](C)O)C(C)C)[C@@H](C)O
# notes: also called compound 94
# B5: N^ε1-[(4S)-4-carboxy-4-(19-carboxynonadecanoylamino)butanoyl]-[Arg17,Pro21,Pro27,Arg34]-h-amylin (peptide)
# peptide: K([γGlu-C20 diacid])CNTATCATQRLANFLRHSSPNFGAIPSSTNVGRNTY-NH2
# modifications: disulfide 2-7; N-terminus assumed
# SMILES: CC[C@H](C)[C@H](NC(=O)[C@H](C)NC(=O)CNC(=O)[C@H](Cc1ccccc1)NC(=O)[C@H](CC(N)=O)NC(=O)[C@@H]1CCCN1C(=O)[C@H](CO)NC(=O)[C@H](CO)NC(=O)[C@H](Cc1c[nH]cn1)NC(=O)[C@H](CCCNC(=N)N)NC(=O)[C@H](CC(C)C)NC(=O)[C@H](Cc1ccccc1)NC(=O)[C@H](CC(N)=O)NC(=O)[C@H](C)NC(=O)[C@H](CC(C)C)NC(=O)[C@H](CCCNC(=N)N)NC(=O)[C@H](CCC(N)=O)NC(=O)[C@@H](NC(=O)[C@H](C)NC(=O)[C@@H]1CSSC[C@H](NC(=O)[C@@H](N)CCCCNC(=O)CC[C@H](NC(=O)CCCCCCCCCCCCCCCCCCC(=O)O)C(=O)O)C(=O)N[C@@H](CC(N)=O)C(=O)N[C@@H]([C@@H](C)O)C(=O)N[C@@H](C)C(=O)N[C@@H]([C@@H](C)O)C(=O)N1)[C@@H](C)O)C(=O)N1CCC[C@H]1C(=O)N[C@@H](CO)C(=O)N[C@@H](CO)C(=O)N[C@H](C(=O)N[C@@H](CC(N)=O)C(=O)N[C@H](C(=O)NCC(=O)N[C@@H](CCCNC(=N)N)C(=O)N[C@@H](CC(N)=O)C(=O)N[C@H](C(=O)N[C@@H](Cc1ccc(O)cc1)C(N)=O)[C@@H](C)O)C(C)C)[C@@H](C)O
# notes: also called compound 79
# B6: N^ε1-[(4S)-4-carboxy-4-(19-carboxynonadecanoylamino)butanoyl]-[Glu14,Arg17,Pro21,Pro27,Arg34,Glu35]-h-amylin (peptide)
# peptide: K([γGlu-C20 diacid])CNTATCATQRLAEFLRHSSPNFGAIPSSTNVGRETY-NH2
# modifications: disulfide 2-7; N-terminus assumed
# SMILES: CC[C@H](C)[C@H](NC(=O)[C@H](C)NC(=O)CNC(=O)[C@H](Cc1ccccc1)NC(=O)[C@H](CC(N)=O)NC(=O)[C@@H]1CCCN1C(=O)[C@H](CO)NC(=O)[C@H](CO)NC(=O)[C@H](Cc1c[nH]cn1)NC(=O)[C@H](CCCNC(=N)N)NC(=O)[C@H](CC(C)C)NC(=O)[C@H](Cc1ccccc1)NC(=O)[C@H](CCC(=O)O)NC(=O)[C@H](C)NC(=O)[C@H](CC(C)C)NC(=O)[C@H](CCCNC(=N)N)NC(=O)[C@H](CCC(N)=O)NC(=O)[C@@H](NC(=O)[C@H](C)NC(=O)[C@@H]1CSSC[C@H](NC(=O)[C@@H](N)CCCCNC(=O)CC[C@H](NC(=O)CCCCCCCCCCCCCCCCCCC(=O)O)C(=O)O)C(=O)N[C@@H](CC(N)=O)C(=O)N[C@@H]([C@@H](C)O)C(=O)N[C@@H](C)C(=O)N[C@@H]([C@@H](C)O)C(=O)N1)[C@@H](C)O)C(=O)N1CCC[C@H]1C(=O)N[C@@H](CO)C(=O)N[C@@H](CO)C(=O)N[C@H](C(=O)N[C@@H](CC(N)=O)C(=O)N[C@H](C(=O)NCC(=O)N[C@@H](CCCNC(=N)N)C(=O)N[C@@H](CCC(=O)O)C(=O)N[C@H](C(=O)N[C@@H](Cc1ccc(O)cc1)C(N)=O)[C@@H](C)O)C(C)C)[C@@H](C)O
# Molecular target: T1, human amylin 3(a) receptor (human …)
# Assay: cell-based or functional assay
row,Binder,hAmylin-R funct. EC50 [nM]
1,B1,0.118
2,B2,0.405
3,B3,0.376
4,B4,0.07
5,B5,0.161
6,B6,0.421

# Molecular target: T2, human calcitonin receptor
# Assay: cell-based or functional assay
Binder,Ratio hCT/hAmylin funct.,hCTR funct. EC50 [nM]
B1,9.7,1.15
B2,41.6,16.8
B3,17,6.38
B4,4.5,0.316
B5,24.5,3.94
B6,6.5,2.75
